In patent US20220009989A1:

Legend:
Biotinylated PCSK9 = Biotinylated PCSK9 (UniProt Q8NBP7); assay: PCSK9-LDL-R competitive ELISA (biotinylated PCSK9, coated rhLDL-R), Ki from IC50
[1] = biological target: PCSK9 (10 ug/mL; in-house production) (UniProt Q8NBP7); assay: cell-based or functional assay
[2] = biological target: solubilised human IR-A (human) (UniProt P06213); assay: SPA competition vs [125I-A14Y]-human insulin, solubilised hIR-A, 0% HSA, relative to human insulin
[3] = biological target: solubilised human IR-A (human) (UniProt P06213); assay: SPA competition vs [125I-A14Y]-human insulin, solubilised hIR-A, 1.5% HSA, relative to human insulin

solubilised human IR-A (human), sequence (P06213 other isoform, or with tags, fused parts or gaps limits assumed): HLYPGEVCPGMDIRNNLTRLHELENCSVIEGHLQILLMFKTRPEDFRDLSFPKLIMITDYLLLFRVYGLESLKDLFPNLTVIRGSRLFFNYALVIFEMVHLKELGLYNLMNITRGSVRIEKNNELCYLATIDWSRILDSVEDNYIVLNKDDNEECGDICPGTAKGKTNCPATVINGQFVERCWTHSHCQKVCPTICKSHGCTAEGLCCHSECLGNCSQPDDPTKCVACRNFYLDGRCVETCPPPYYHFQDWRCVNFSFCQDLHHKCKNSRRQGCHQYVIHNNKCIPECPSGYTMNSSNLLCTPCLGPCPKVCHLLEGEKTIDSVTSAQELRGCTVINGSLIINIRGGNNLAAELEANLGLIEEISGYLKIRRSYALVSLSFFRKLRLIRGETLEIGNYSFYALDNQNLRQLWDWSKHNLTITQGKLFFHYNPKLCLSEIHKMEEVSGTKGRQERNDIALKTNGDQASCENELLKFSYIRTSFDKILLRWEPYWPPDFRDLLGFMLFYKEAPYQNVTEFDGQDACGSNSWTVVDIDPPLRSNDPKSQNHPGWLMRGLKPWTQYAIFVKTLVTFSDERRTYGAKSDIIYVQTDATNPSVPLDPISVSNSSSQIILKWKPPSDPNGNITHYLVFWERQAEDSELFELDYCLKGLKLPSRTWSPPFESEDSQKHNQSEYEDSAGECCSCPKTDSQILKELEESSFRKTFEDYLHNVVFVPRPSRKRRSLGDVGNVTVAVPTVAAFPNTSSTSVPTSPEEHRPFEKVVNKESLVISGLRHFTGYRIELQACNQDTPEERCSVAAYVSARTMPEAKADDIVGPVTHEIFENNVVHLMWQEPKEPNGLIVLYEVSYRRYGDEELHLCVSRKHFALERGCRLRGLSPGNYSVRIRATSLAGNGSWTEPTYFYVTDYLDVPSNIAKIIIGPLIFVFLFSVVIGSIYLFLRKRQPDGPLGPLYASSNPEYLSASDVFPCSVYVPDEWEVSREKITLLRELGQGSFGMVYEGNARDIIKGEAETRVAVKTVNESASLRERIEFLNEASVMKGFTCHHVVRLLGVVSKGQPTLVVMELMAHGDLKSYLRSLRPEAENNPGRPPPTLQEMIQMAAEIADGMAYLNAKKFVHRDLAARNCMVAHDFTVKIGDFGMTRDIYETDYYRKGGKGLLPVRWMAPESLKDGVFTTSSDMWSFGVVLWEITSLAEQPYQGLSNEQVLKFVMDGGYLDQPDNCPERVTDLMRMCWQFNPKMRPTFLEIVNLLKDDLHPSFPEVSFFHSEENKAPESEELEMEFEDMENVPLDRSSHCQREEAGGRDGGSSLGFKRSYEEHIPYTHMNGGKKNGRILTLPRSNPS

Row | Substance | Ki (Biotinylated PCSK9) [nM] | LDL uptake EC50 (nM) in HepG2 cells [1] [nM] | hIR-A binding affinity (% rel to HI) [2] | hIR-A binding affinity (% rel to HI) [3]
1 | EGF(A)(301L, 309R, 312E, 321E)-[GAQP]6-Insulin(A14E, B29K(eicosanedioyl-gGlu-2×OEG), desB30 | 1.75 |  |  | 
2 | EGF(A)(301L, 309R, 312E, 321E, 328K(hexadecanedioyl-gGlu-2×OEG), 330K(hexadecanedioyl-gGlu-2×OEG)) (peptide; modification not given) |  | 152 |  | 
3 | EGF(A)(301L, 309R, 312E, 321E)-[GAQP]19-Insulin(A14E, B29K(octadecanedioyl-gGlu-2×OEG), desB30) | 2.12 | 123 | 2.99 % rel to HI | 0.14 % rel to HI
4 | EGF(A)(301L, 309R, 312E, 321E)-[GAQP]6-Insulin(A14E, B29K(octadecanedioyl-gGlu-OEG), desB30) | 2.07 |  |  | 
5 | EGF(A)(301L, 309R, 312E, 321E)-[GAQP]19-Insulin(B3E, B29K(eicosanedioyl-gGlu-2×OEG), desB30) | 1.86 |  | 4.15 % rel to HI | 0.29 % rel to HI
6 | EGF(A)(301L, 309R, 312E, 321E)-[GAQP]19-Insulin(A14E, B29K(eicosanedioyl-gGlu-2×OEG), desB30) |  | 126 | 2.89 % rel to HI | 0.14 % rel to HI
7 | EGF(A)(301L, 309R, 312E, 321E)-[GAQP]6-Insulin(A14E, B29K(octadecanedioyl-gGlu-2×OEG), desB30) | 1.92 |  |  | 
8 | EGF(A)(301L, 309R, 312E, 321E, 328K(hexadecanedioyl-gGlu-2×OEG), 330K(hexadecanedioyl-gGlu-2×OEG)) (peptide; modification not given; biotinylated (sites not stated)) | 1.9 |  |  | 
